B1: Protein fantom (Homo sapiens), Q68CZ1-2 (parent)
chain: MSGPTDETAGDLPVKDTGLNLFGMGGLQETSTTRTMKSRQAVSRVSREELEDRFLRLHDENILLKQHARKQEDKIKRMATKLIRLVNDKKRYERVGGGPKRLGRDVEMEEMIEQLQEKVHELEKQNETLKNRLISAKQQLQTQGYRQTPYNNVQSRINTGRRKANENAGLQECPRKGIKFQDADVAETPHPMFTKYGNSLLEEARGEIRNLENVIQSQRGQIEELEHLAEILKTQLRRKENEIELSLLQLREQQATDQRSNIRDNVEMIKLHKQLVEKSNALSAMEGKFIQLQEKQRTLRISHDALMANGDELNMQLKEQRLKCCSLEKQLHSMKFSERRIEELQDRINDLEKERELLKENYDKLYDSAFSAAHEEQWKLKEQQLKVQIAQLETALKSDLTDKTEILDRLKTERDQNEKLVQENRELQLQYLEQKQQLDELKKRIKLYNQENDINADELSEALLLIKAQKEQKNGDLSFLVKVDSEINKDLERSMRELQATHAETVQELEKTRNMLIMQHKINKDYQMEVEAVTRKMENLQQDYELKVEQYVHLLDIRAARIHKLEAQLKDIAYGTKQYKFKPEIMPDDSVDEFDETIHLERGENLFEIHINKVTFSSEVLQASGDKEPVTFCTYAFYDFELQTTPVVRGLHPEYNFTSQYLVHVNDLFLQYIQKNTITLEVHQAYSTEYETIAACQLKFHEILEKSGRIFCTASLIGTKGDIPNFGTVEYWFRLRVPMDQAIRLYRERAKALGYITSNFKGPEHMQSLSQQAPKTAQLSSTDSTDGNLNELHITIRCCNHLQSRASHLQPHPYVVYKFFDFADHDTAIIPSSNDPQFDDHMYFPVPMNMDLDRYLKSESLSFYVFDDSDTQENIYIGKVNVPLISLAHDRCISGIFELTDHQKHPAGTIHVILKWKFAYLPPSGSITTEDLGNFIRSEEPEVVQRLPPASSVSTLVLAPRPKPRQRLTPVDKKVSFVDIMPHQSDVSQEGSVDEVKENTEKMQQGKDDVSLLSEGQLAEQSLASSEDETEITEDLEPEVEEDMSASDSDDCIIPGPISKNIKQPSEKIRIEIIALSLNDSQVTMDDTIQRLFVECRFYSLPAEETPVSLPKPKSGQWVYYNYSNVIYVDKENNKAKRDILKAILQKQEMPNRSLRFTVVSDPPEDEQDLECEDIGVAHVDLADMFQEGRDLIEQNIDVFDARADGEGIGKLRVTVEALHALQSVYKQYRDDLEA
partner: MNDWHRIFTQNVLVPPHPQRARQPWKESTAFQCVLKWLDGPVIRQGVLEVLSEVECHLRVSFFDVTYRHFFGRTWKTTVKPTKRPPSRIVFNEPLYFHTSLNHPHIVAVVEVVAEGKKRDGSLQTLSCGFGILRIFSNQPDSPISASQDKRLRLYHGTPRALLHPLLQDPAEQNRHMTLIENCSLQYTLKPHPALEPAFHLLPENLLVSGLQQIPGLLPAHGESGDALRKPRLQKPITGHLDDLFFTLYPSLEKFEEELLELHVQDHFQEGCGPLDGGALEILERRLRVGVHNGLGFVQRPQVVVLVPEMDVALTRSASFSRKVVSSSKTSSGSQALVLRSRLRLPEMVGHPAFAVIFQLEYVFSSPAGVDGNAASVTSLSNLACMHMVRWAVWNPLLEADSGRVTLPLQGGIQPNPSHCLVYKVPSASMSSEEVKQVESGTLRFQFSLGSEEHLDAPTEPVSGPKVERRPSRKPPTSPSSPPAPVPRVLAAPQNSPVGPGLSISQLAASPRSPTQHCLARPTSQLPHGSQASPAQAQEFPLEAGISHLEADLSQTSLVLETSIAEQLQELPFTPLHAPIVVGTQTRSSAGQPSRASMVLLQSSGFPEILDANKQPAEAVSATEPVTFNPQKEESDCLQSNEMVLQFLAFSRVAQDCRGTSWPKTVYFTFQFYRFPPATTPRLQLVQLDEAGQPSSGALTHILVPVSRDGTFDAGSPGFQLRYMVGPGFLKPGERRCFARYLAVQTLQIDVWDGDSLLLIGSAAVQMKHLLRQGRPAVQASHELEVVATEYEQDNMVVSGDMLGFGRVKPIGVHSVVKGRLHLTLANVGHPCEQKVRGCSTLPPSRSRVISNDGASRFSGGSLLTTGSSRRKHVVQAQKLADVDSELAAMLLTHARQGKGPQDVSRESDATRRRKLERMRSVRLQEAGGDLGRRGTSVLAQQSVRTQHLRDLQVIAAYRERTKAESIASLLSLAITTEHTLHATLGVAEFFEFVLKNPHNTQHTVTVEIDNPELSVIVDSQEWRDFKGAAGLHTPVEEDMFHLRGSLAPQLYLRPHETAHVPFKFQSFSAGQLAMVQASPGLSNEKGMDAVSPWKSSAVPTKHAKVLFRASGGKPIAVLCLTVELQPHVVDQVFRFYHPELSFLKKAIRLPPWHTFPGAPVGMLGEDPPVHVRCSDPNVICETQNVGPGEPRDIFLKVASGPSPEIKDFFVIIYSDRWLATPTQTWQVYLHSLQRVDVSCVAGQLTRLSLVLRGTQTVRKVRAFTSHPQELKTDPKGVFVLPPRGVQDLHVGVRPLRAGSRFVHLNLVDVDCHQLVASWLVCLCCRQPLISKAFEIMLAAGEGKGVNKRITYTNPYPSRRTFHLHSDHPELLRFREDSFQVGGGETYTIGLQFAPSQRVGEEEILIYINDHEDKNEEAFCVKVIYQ
B2: Nephrocystin-4 (Homo sapiens), O75161 (parent)
chain: B1 partner

Variants of: B1
Details: with nphp4_human NPHP4, O75161

**Q.** For T615P, which “effect of a mutation on the interaction” value is on record?
**A.** decreasing interaction

Variants of: B2
Details: with RPGRIP1L

**Q.** How did the “effect of a mutation on the interaction” value turn out when G754R was run?
**A.** decreasing interaction
